Measurements as given in patent US20110097323A1 (published 2011).
Where a chain is given by its changes, count along the chain named. Names may count otherwise.

T1: CD32B (FcγRII-B) (UniProt P31994 43-217, limits assumed)
T1 construct: No species or construct stated
T1 sequence (looked up): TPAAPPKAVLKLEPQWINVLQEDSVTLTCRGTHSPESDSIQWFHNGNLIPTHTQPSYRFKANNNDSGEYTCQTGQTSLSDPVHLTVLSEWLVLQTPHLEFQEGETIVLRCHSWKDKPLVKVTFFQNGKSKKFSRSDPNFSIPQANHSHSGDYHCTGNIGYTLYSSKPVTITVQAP

B1: ch4D5-wild-type Fc (antibody, human IgG1, kappa)
heavy: not shown
light: DIVMTQSHKFMSTSVGDRVSITCKASQDVNTAVAWYQQKPGHSPKLLIYSASFRYTGVPDRFTGSRSGTDFTFTISSVQAEDLAVYYCQQHYTTPPTFGGGTKVEIKRTVAAPSVFIFPPSDEQLKSGTASVVCLLNNFYPREAKVQWKVDNALQSGNSQESVTEQDSKDSTYSLSSTLTLSKADYEKHKVYACEVTHQGLSSPVTKSFNRGEC
notes: Chimeric 4D5 antibody; wild-type Fc; also called ch4D5-FcWT; ch4D5-FcWT (wild-type Fc)
B2: ch4D5-FcMT1 (antibody, human IgG1, kappa)
heavy: QVQLQQSGPELVKPGASLKLSCTASGFNIKDTYIHWVKQRPEQGLEWIGRIYPTNGYTRYDPKFQDKATITADTSSNTAYLQVSRLTSEDTAVYYCSRWGGDGFYAMDYWGQGASVTVSSASTKGPSVFPLAPSSKSTSGGTAALGCLVKDYFPEPVTVSWNSGALTSGVHTFPAVLQSSGLYSLSSVVTVPSSSLGTQTYICNVNHKPSNTKVDKRVEPKSCDKTHTCPPCPAPELLGGPSVFLLPPKPKDTLMISRTPEVTCVVVDVSHEDPEVKFNWYVDGVEVHNAKTKPPEEQYNSTLRVVSILTVLHQDWLNGKEYKCKVSNKALPAPIEKTISKAKGQPREPQVYTLPPSRDELTKNQVSLTCLVKGFYPSDIAVEWESNGQPENNYKTTPLVLDSDGSFFLYSKLTVDKSRWQQGNVFSCSVMHEALHNHYTQKSLSLSPGK
light: B1 light
B3: Fc variant R255L D270E Y300L P396L (other, UniProt P01857-1 99-330, looked up, name in EU numbering)
chain: EPKSCDKTHTCPPCPAPELLGGPSVFLFPPKPKDTLMISLTPEVTCVVVDVSHEEPEVKFNWYVDGVEVHNAKTKPREEQYNSTLRVVSVLTVLHQDWLNGKEYKCKVSNKALPAPIEKTISKAKGQPREPQVYTLPPSRDELTKNQVSLTCLVKGFYPSDIAVEWESNGQPENNYKTTPLVLDSDGSFFLYSKLTVDKSRWQQGNVFSCSVMHEALHNHYTQKSLSLSPGK
notes: domain: Fc region; positions are EU index
B4: Fc variant R292P V305I P396L (other, UniProt P01857-1 99-330, looked up, name in EU numbering)
chain: B3 chain with L40R, E55D, R77P, L85Y, V90I
notes: as for B3

Tests used:
[1] = target: T2, HER-2 (UniProt P04626 23-652, limits assumed); assay: SPR (BIAcore 1000), HER-2 amine-coupled to chip, antibody injected at 6.25-200 nM
T2 construct: also called HER2/neu; erbB-2
Description: The kinetic parameters of the binding of eluted and purified antibodies were analyzed using a BIAcore assay (BIAcore instrument 1000, BIAcore Inc., Piscataway, N.J.) and associated software. HER-2 was immobilized on one of the four flow cells (flow cell 2) of a sensor chip surface through amine coupling chemistry (by modification of carboxymethyl groups with mixture of NHS/EDC) such that about 1000 response units (RU) of receptor was immobilized on the surface. Following this, the unreacted active esters were “capped off” with an injection of 1M Et-NH2.

[2] = target: human CD16A (FcγRIII-A) (human, UniProt P08637 17-208, limits assumed); assay: method not stated; reference not named (Fc-optimized against wild-type)
[3] = target: CD16A F158 (human, UniProt P08637 17-208, limits assumed); assay: Table 3; relative to wild-type Fc; method not stated
[4] = target: T1, CD32B (FcγRII-B); assay: as above
[5] = target: CD16A V158 (human, UniProt P08637 17-208, limits assumed); assay: as above
CD16A V158, sequence (P08637 17-208 F176V limits assumed): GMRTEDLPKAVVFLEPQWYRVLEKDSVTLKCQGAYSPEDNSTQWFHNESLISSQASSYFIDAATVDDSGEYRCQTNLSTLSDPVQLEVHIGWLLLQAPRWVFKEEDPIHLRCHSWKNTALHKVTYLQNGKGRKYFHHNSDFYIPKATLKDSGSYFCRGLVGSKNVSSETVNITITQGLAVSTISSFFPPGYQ

CD16A F158, sequence (P08637 17-208 limits assumed): as the sequence (P08637 17-208 F176V limits assumed) above, with V160F counted along it
human CD16A (FcγRIII-A), sequence (P08637 17-208 limits assumed): as the sequence (P08637 17-208 F176V limits assumed) above, with V160F counted along it

| Binder | koff [1] [s⁻¹] | kon [1] [M⁻¹ s⁻¹] | fold increase in binding [2] [fold] | binding relative to wild-type Fc (fold) [3] | binding relative to wild-type Fc (fold) [4] | binding relative to wild-type Fc (fold) [5] |
| --- | --- | --- | --- | --- | --- | --- |
| B1 | ~3.2e-07 | 170000 | – | – | – | – |
| B2 | – | – | 10 | – | – | – |
| B3 | – | – | – | 1.74 | 0.87 | 1.52 |
| B4 | – | – | – | 1.9 | 0.92 | 1.85 |
